The values that follow come from the nanobody polyreactivity screen of Harvey et al. (2022).

The series is described as follows: yeast display, Sf9 membrane polyspecificity reagent, FACS + sequencing; frameworks hold sequencing errors. The method, boiled down: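 In a synthetic yeast display library (Saccharomyces cerevisiae BJ5465), nanobody expression was induced with galactose for 36–48 hours. FACS gates were set low and high (top ~1%) using anti-HA fluorescence for expression and streptavidin fluorescence for binding of the Sf9 membrane reagent. Each polyreactivity label is drawn from the gate of origin.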
In the case of “QVQLVESGGGLVQAGGSLRLSCAASGSTLATYTMGWYRQAPGKERELVAAISFGGSTYYADSVKGRFTISRDNAKNTVYLQMNSLKPEDTAVYYCAVYGDSYWGASYYSDGYWGQGTQVTVSS”, the “polyreactivity (PSR sort gate)” value is given as “low polyreactivity”.
As for “QVQLVESGGGLVQAGGSLRLSCAASGRTFNEYAMGWYRQAPGKERELVAAISSSGDSTYYADSVKGRFTISRDNAKNTVYLQMNSLKPEDTAVYYCAAQVVVWYPYVYFPGYDYWGQGTQVTVSS”, the “polyreactivity (PSR sort gate)” value was “low polyreactivity”.
Consider “QVQLVESGGGLVQAGGSLRLSCAASGRIFRAYAMGWYRQAPGKERELVAAISSGGITSYADSVKGRFTISRDNAKNTVYLQMNSLKPEDTAVDYCAALVYPYWGGSMYYWGQGTQVTVSS”, for which the “polyreactivity (PSR sort gate)” value is “high polyreactivity”.
For the sequence “QVQLVESGGGLVQAGGSLRLSCAASGIIFDVYAMGWYRPAPGKERELVAAISYGGGTTYYADSVKGRFTISRDNAKNTVYLQMNSLKPEDTAVYYCAADSYRSIGDDYWGQGTQVTVSS”, the “polyreactivity (PSR sort gate)” value is reported as “high polyreactivity”.
On to “QVQLVESGGGLVQAGGSLRLSCAASGLYAMGWYRPAPGKERELVADINSSGGSITNYADSVKGRFTISRDNAKNTVYLQMISLKPEDTAVYYCAKRGPYFAYDYWGQGTQVTVSS”, for which the “polyreactivity (PSR sort gate)” value was “low polyreactivity”.
Regarding “QVQLVESGGGLVQAGGSLRLSCAASGSTFLPYAMGWYRQAPGKERELVAAIRWSVGSTYYADSVKGRFTISRDNAKNTVYLQMNSLKPEDTAVYYCAVTYGRGYEYWGQGTQVTVSS”, the “polyreactivity (PSR sort gate)” value is “high polyreactivity”.
Consider “QVQLVESGGGLVQAGGSLRLSCAASGRTFKYNAMGWYRQAPGKRKELVAAISSGGSTYYADSVKGRFTISRDNAKNTVYLQMNSLKPEDTAVYYCAVRNTKSYWFGYWGQGTQVTVSS”, for which the “polyreactivity (PSR sort gate)” value is on record as “high polyreactivity”.
As to “QVTLVESGGGLVQAGGSLRLSCAASVLIFYSYAMGWYRQAPGKERELVAAISSGTRTYYADSVKGRFTISRDNAKNTVYLQMNSLKPEDTAVYYCAAVDAHKKRYPPSGRLYGYWGHGTQVTVSS”, the “polyreactivity (PSR sort gate)” value is listed as “high polyreactivity”.
In the case of “QVQLVETGGGLVQAGASLRLSCAASGRTFVYNAMGWYRQAPGKEREFVAAIDGGGDRTFYADSVKGRFTISRDYAKNTVYLQMNSLKPEDTAVYYCARDPGDTYYYSYPEGDYWGQGTQVTVSS”, the “polyreactivity (PSR sort gate)” value is given as “low polyreactivity”.
On to “QVQLVESGGGLVQAGGSLRLSCAASGFIFGSYTMGWYRQAPGKERELVAAITTGGSTNYADSVKGRFTISRDNAKNTVYLQMNSLKPEDTAVYYCNAVWYYRGNPDIYGGLDYWGQGTQVTVSS”, for which the “polyreactivity (PSR sort gate)” value is listed as “low polyreactivity”.
Turning to “QVQLVESGGCLVQAGGSLRLSCAASGRTFFNYGMGWYRQAPGKEREFVARISFSGGSTYYADSVKGRFTISRDNAKNTVFLQMNSLIPEDTAVYYCNARVFPVAYRYGYWGQGTQVTVSS”, the “polyreactivity (PSR sort gate)” value is “high polyreactivity”.
As for “QVQLVESGGGLVQAGGSLRLSCAASGRTFTQYAMGWYRQAPGKERELVAAIDYRGSRTYYADSVKGRFTISRDNAKNTVYLQMNSLKPEDTAFYYCNTVHRFGTYDYWGQGTQVTVSS”, the “polyreactivity (PSR sort gate)” value was “high polyreactivity”.
Under “QVQLVESGGGLVQAGGSLRLSCAASGSTFRSYAMGWYIQAPGKERELVARISYRTGSTYYADSVKGRFTISRDNAKNTVYLQMNSLKPEDTAVYYCATRGSYVGGLYDYWGQGTQVTVSS” stands “high polyreactivity”.
On to “QVQLVESGGGLVQAGGSLRLSCAASGLIFYRYVMGWYRQAPGKERELVASISTSGGRTYYADSVKGRFTISRDNAKNTVYLQMNSLKPEDTAVYYFAADFESYSRYYDGYDYWGQGTQVTVSS”, for which the “polyreactivity (PSR sort gate)” value is on record as “high polyreactivity”.
To “QVQLVESGGGLVQAGGSLRLSCAASGSIFYTYAMGWYRQAPGKERELVAAINWSGGRTYYADSVKGRFTISRDNAKNTVYLQMNSLTPEDTAVYSCAARRGRSWGGFDYWGQGTQVTVSS” belongs “low polyreactivity”; to “QVQLVESGGGLLKAGRSLRLSCAASGRIFGYYAMGWYRQAPGKERELVAAISTGGGRTYYADSVKGRFTISRDNAKNTVYLQMNSLKPEDTAVYYCAARLKWGWPTYDYWGQGTQVTVSS”, “high polyreactivity”.
As for “QVQLVESGGGLVQAGGSLRLSSAASGRIFWAYLMGRYRQAPGKERELVATIRWRGGSTYYADSVKGRFTISRDNAKNTFYLQMIRLKLEDTAVYYCNADRYSRISPTRYDYWGQGTQVTVSS”, the “polyreactivity (PSR sort gate)” value was “high polyreactivity”.
To “QVQLVESGGGLVQAGGSLRLSCAASGSTFVTYAMGRYRQAPGKERELVAAISSAGSTNYADSVKGRFTISRDNAKNTVYLQMNSLKPEDTAVYYCARDIQDTYEFDYWGQGTQVTVSS” belongs “low polyreactivity”; to “QVQLVESGGGLVQAGGSLRLSCAASGSTFVVNAMGWYRQAPGKERELVAAITQSGGSTFYADSVKGRFTISRDNAKNTVYLQMNSLKPEDTAVYYWGLGTQVTVSS”, “low polyreactivity”.
To “QVQLVESGGGLVQAGGSLRLSCAASGSTFTSYVMGWYRQAPGKERELVAAISSSGTRTYYADSVKGRFTISRDNAKNTVYLQMNSLKPEDTSVYYCAARGGAPYRIFKDDYWGQATQVTVSS” belongs “high polyreactivity”; to “QVQLVESGGGLVQAGGSLRLSCAASGRIFNGYAMGWYRQAPGKERELVAAISVSGGSTYYADSVKGRFTISRDNAKNTVYLQMNSLKPEDTAVYYCAARTSSYSFPYAYNYWGQGTQVTVSS”, “high polyreactivity”; to “QLQLVESGGGLVQEGGSLRISCDASGSTFDDNAMACYRQAPGKERELVAGIDVSGGSTYYADSVKGRFTISRDNAKKTVYLQMTSLTPEDTAVYFCAKGRPGHRTSSVNFNYWGQGTQVTVSS”, “low polyreactivity”.
To “QVQLVESGGGLVQAGGSLRLSCAASGITFDGNAMGWYRQEPGKERELVAAIDFSGGSTTYADSVKGRFTISRDNAKNTVYLQMNSLKPEDTAVYYCAAVDWYGFLAVEEYYWGQGTQVTVSS” belongs “high polyreactivity”; to “QVQLVESGGGLVQAGGILRLSCASSGRTFRYYAKGWYRQAPGKERELVATISKSGGSTYYADSVKGRFTISRDNAKNTVYLQMNRLKPEDTAVYYCAAVGPYRWYDYWGQGTQVTVSS”, “high polyreactivity”.
“QVQLVESRGGLVQAGGSLRLSCAASGSNFYAYAMGWYRQAPGKERELVAAISWSTSSTYADSVKGRFTISRDNAKNTVYLQMNSLKPEDTAVYYCAASPYKGTGAEFDYWGQGTQVTVSS”: the “polyreactivity (PSR sort gate)” value was “low polyreactivity”.
In the case of “QDQHVESGGGLVQAGGSLRLSCAASGITFNKYAMGWYRQAPGKERELVAAISFSGGSTYYADSVKGRFTISRDNAKNTVYLQMNSLKPEVTAVYYCAAVWGYVIWVDTAVYREYDYWGQGTQVTVSS”, the “polyreactivity (PSR sort gate)” value is given as “high polyreactivity”.
Under “HVQLVESGGGLVQAGGSLRLSCAASGSIFESNAMGWYRQAPGKERELVAAYADSVKGRFTISRDNAKNTVYVQMNSLKPEETAVYYCAARIGTGVLPGRGANSHMDYWGQGTQVTVSS” stands “low polyreactivity”.
With “QVQLVESGGGLVQAGGSLRLTCADSGFIFYRYAMVWYRQAPGKERELVAAISTRGGSTFYADSVKGRFTISRDNAKNTVYLQMNSLKPEDTAVYYCATGPLRAYDYWGQGTQVTVSS”, the “polyreactivity (PSR sort gate)” value is recorded as “high polyreactivity”.
With “QVQLEESGGRLVQAGGSLRLSCAASGRILRRYTMGWYRQAPGKETELVAAISSGGNTYYADSVKGRFTISRDNAKNTVYLQMNSLKPEDTAVDYCAARVRRYWEYDYWGQGTQVTVSS”, the “polyreactivity (PSR sort gate)” value was “low polyreactivity”.
Turning to “QVQLVESGGGLVQAGGSLRLSCAASGSTFYTYAMGWYRQATGKERELVAAISWSGGSTYYADSVKGRFTISRDNAKNTVYLQMNSLKPEDPAVYYCAADRPYAGRYWKGYHSALYDYWGQGSQVTVSS”, the “polyreactivity (PSR sort gate)” value is reported as “low polyreactivity”.
For the sequence “QDQLVESGGGLVQAGGSLRLSCAASGFTFYAYAMGWYRQAPGKERELVAAITGRGGSTYYADSVKGRFTISRDNAKNTVYLPLNSLKPEDTAVYDCNKVKKSDKFNTVSNDYWGQGTQVTVSS”, the “polyreactivity (PSR sort gate)” value was “high polyreactivity”.
Regarding “QVHLQESGGGLVQACGSQRLSCAARGSISEGQDMGWYRRAPGKEREFVAGIAPGATTYYADSVRGRFTISRDNANNTVSLQMNSLKPEDTAVYYCAARTVTETDHDYWGQGTQVTVSS”, the “polyreactivity (PSR sort gate)” value is reported as “low polyreactivity”.
Consider “QVQLVESGGGLVQAGGSLRLSCAASGRIFSKYAMGWYRQAPGKERELVAAITYSGGSTYYADSVKGRFTISRDNAKNTVYLQMNSLKPEDTAVYYCAAVHGTSYSKWFGYWGQGTQVTVSS”, for which the “polyreactivity (PSR sort gate)” value is given as “low polyreactivity”.
“QVQLVESGGGLVQAGGSLRLSCAASGFTFRWNGMGSYRQAPGKERELVAAISYDGTGTYYADSVKGRFTISRDNAKNTVYLQMNSLKPEDTAVYYCAKTYRDDTSLSGFDSWGQGTQVTVSS”: the “polyreactivity (PSR sort gate)” value is on record as “high polyreactivity”.
On to “QVQLVESGGGLVKAGGSLGLSCAASGRTLRYYAMGWYRQAPRKERELVASISIGGSTYYADSVKGRFTISRDNAKNTVYLQMNSLKPEDTAVYYCATDYSNSGYGYWGQCTQVTVSS”, for which the “polyreactivity (PSR sort gate)” value was “low polyreactivity”.
As for “QVQHVESGGGLVQAGGSLRLSCAASGGTFYTYAMGWYRQAPGKERELVAAITSRGSSTYYADSVKGRFTISRDNANNTVYLQMNSLKPEDTAVYYCARRSQRGMYSMYYWGQGTQVTVSS”, the “polyreactivity (PSR sort gate)” value is reported as “low polyreactivity”.
With “QVQLVESGGGLVQAGGSLRLSCAASGLTFTNYAMGWYRQAPGKELELVAAISSSGSDTYYADSVKGRFTISRDNAKNTVYLQMNSLKPEDTAVYYCAAVLTALSPDFEYEYWGQGTQVTVSS”, the “polyreactivity (PSR sort gate)” value is on record as “low polyreactivity”.
Under “QVQLVESGGGLVQAGGSLRLSCPASGRIFTYYTMGWYRQAPGKERELVASITGGGGRTYYADSVKGRFTISRDNAKNTVYLQMNSLKPEDTAVYYCNDRYPYPYWYTSYDYWGQGSQVTVSS” stands “high polyreactivity”; under “QVQLEESGGGLCQAGGSLRLSCAPSGSIFVSNAMVCYRQAPGKERELVAAITYNGGRTFYADSVKGRFTISRDNAKNTVYLQLNSLKPEDTAVYYFAADGSWHGYGYWGQGTQVTVSS”, “low polyreactivity”.
In the case of “QVQLVESGGGLVQAGGSLRLSCAASGRIFGYYAMGWYRQAPGKERELVARITWSGGDTYYADSVKGRFTISRDNAKNTVYLQMNSLKPEDTAVYYCAADYLDSTYGYVYGWDDYWGQGTQVTVSS”, the “polyreactivity (PSR sort gate)” value is reported as “low polyreactivity”.
On to “QVQLVESGGGLVQAGGSLRLSCAASGNTFTTNAMGWYRQAPGKERELVAAIRWRADSTYYADSVKGRFTISRDNAKNTVYLQMNSLKPEDTAVYYCASRYSLRYYYWGQGTQVTVSS”, for which the “polyreactivity (PSR sort gate)” value was “low polyreactivity”.
